Measured values: patent US12441790B2, “Binding proteins to the human thrombin receptor, PAR4” (MONASH UNIVERSITY, priority 2017, dated 2025)

Experiments:
PAR1 = molecular target: T1, PAR1 (Homo sapiens, UniProt P25116); conditions: in combination with single or dual antiplatelet therapy; cited from earlier work
T1 construct: host or cells: patients in clinical trials
T1 sequence (P25116 22-425): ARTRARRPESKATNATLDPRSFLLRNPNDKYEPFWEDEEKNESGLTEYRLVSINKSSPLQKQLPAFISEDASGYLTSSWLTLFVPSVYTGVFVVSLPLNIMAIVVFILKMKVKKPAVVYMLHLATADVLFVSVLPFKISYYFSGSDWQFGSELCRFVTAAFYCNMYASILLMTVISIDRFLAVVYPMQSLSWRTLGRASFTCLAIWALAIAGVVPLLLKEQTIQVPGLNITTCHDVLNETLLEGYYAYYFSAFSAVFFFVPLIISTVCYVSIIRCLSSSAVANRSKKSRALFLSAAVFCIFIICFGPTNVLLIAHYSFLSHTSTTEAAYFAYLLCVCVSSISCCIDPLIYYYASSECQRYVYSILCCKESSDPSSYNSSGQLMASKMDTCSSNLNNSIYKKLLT

human platelets = experiment: Functional screen of hybridoma supernatants by platelet aggregation assay; assay type: cell-based; conditions: aggregation as % of control
Experimental: Platelet aggregation was measured by light transmission aggregometry in a 96-well plate format. Human isolated platelets (2×10^8/ml) were pre-treated for 10 mins at 37° C. with dimethylsulfoxide (DMSO) (1% v/v), the PAR1 antagonist vorapaxar (90 nM), the anti-PAR4 antibody 5RC3 (20-100 μg/ml), or a combination of vorapaxar and 5RC3. Platelets were treated with one of thrombin (0.1 U/ml) and aggregation was analysed at 37° C. in a FLUOstar OPTIMA plate reader (BMG Labtech) using a 595 nm excitation filter, for a period of 50 min (10 read cycles with 5 min double orbital shake period between each read). Optical density was normalised against the blank (maximum) and unstimulated platelets (minimum) and expressed as % maximum.
Thrombin-induced platelet aggregation in the presence of a PAR1 antagonist (i.e. PAR4-dependent aggregation) is shown for 30 monoclonal antibody supernatants binding to human platelets. Antibody supernatant was mixed with human platelets (2×10^8 cells) at a 1:1 ratio.

PAR2 = molecular target: T2, PAR2 (Homo sapiens, UniProt P55085); experiment: ELISA binding ratio to PAR2; conditions: second screening
T2 construct: host or cells: synthetic peptide
T2 sequence (P55085 with tags, fused parts or gaps limits assumed): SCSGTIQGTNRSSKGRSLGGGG
Experimental: (§1) 96-well ELISA plates were coated with 50 μl of antigen diluted to a concentration of 4 μg/ml in coating buffer (0.1M Sodium Hydrogen Carbonate (NaHCO3) (Merck, #1.06329.0500)). Plates were incubated overnight at 4° C.
(§2) Wells were then washed with an automated plate washer (300 μl 1×PBS, 3 times). The wells were blocked with 200 μl of blocking buffer (3% BSA/1×PBS (BSA: (Sigma, #1001647742)) for 1 hour at room temperature followed by washing as above.
(§3) 50 μl of undiluted hybridoma cell culture supernatant was added into appropriate wells and incubated at room temperature for 1 hour followed by washing as above. […] Wells were washed as above. A set of substrate tablets (1×silver, 1×gold) into 20 ml of ddH20 by shaking vigorously on the thermomixer for 6 mins at room temperature. 50 μl of substrate ([…]™ p-Nitrophenyl phosphate Tablets (Sigma-Aldrich, N2770-50SET)) was added into each well and incubated for 20-25 mins at room temperature. 50 μl of STOP solution (2M Sodium Hydroxide, Solid (NaOH) (Merck, Cas #1310-73-2)) was added into each well to stop the reaction. Absorbance was read at 405 nm immediately after adding STOP solution with the ELISA reader, using the ‘RdrOle4’ software.

native PAR4 peptide = molecular target: T3, native PAR4 peptide (Homo sapiens, UniProt Q96RI0); experiment: ELISA screening of hybridoma supernatants, native vs KLH-linked PAR4 peptide; assay type: binding; conditions: first screening; clone; hybridoma supernatant
T3 construct: host or cells: synthetic peptide
Experimental: as §1, §2, §3

[1] = molecular target: T4, human PAR4 containing an N-terminal FLAG tag (Homo sapiens, UniProt Q96RI0); experiment: PAR4 thrombin cleavage assay, FLAG-tagged PAR4 on HEK293 cells, flow cytometry; assay type: cell-based
T4 construct: expressed in transfected cells; host or cells: HEK293 / HEK293T
T4 sequence (Q96RI0 18-385): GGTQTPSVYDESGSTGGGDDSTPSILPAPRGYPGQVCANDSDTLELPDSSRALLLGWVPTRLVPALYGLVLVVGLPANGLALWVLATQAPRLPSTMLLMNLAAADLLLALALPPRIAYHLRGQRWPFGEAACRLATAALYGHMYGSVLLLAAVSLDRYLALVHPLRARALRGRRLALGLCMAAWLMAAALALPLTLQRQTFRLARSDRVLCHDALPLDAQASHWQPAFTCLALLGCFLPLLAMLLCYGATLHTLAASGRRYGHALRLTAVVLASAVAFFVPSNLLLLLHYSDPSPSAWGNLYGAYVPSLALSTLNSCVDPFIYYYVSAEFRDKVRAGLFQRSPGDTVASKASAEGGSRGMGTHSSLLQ
Experimental: 1×10^6 HEK293T cells (in Dulbecco's modified eagle's medium+10% foetal calf serum) were seeded onto 12-well plates 24 hours before transfection. When confluent, they were transiently transfected with 1 μg of DNA from one of the PAR4 variants (expression vectors pBJ-FLAG-PAR4-120A-296F or pBJ-FLAG-PAR4-120T-296F; Edelstein et al (2014) Blood 124(23):3450-8) plus 4 μL of Lipofectamine 2000, as per manufacturer's instructions. Forty-eight hours after transfection, cells were harvested and washed twice with PBS, then resuspended to a count of 1×10^6/mL. Cells (50 μL assays/0.5×10^5 cells per condition) were then pre-treated with either 1, 10 or 100 μg/mL of 5RC3 or sub-clone 5A.RC3.F10b.H4b or 100 μg/mL matched Isotype control (mouse IgG1) for 15 minutes at 37° C. Cells were then stimulated with 2 U/mL of thrombin for 10 minutes. The reaction was stopped by the addition of 4 U/mL hirudin. Cells were then washed once and resuspended with PBS containing a 1:200 dilution of FITC anti-FLAG antibody (Sigma, clone M2) and incubated for 1 hour at room temperature in the dark. Cells were then fixed with 1% paraformaldehyde (final concentration) and read on a FACSCalibur flow cytometer to determine % of FL1/FITC-Positive events. Data were normalised against the resting sample (100%, no thrombin treatment).
Monoclonal antibody hybridoma supernatants (MoB5ARC3, MoB5BRB4, MoB5BRC6, MoB5BRH3 and MoB5CRC4) were screened for their ability to […] intact PAR4 present on the surface of HEK293 cells transfected with human PAR4 containing an N-terminal FLAG tag.
[…] Cleavage of PAR4 by thrombin was measured by loss of FLAG tag from the PAR4 expression HEK293T cells using flow cytometry.

CCOC(=O)N[C@@H]1CC[C@@H]2[C@@H](C1)C[C@H]1C(=O)O[C@H](C)[C@H]1[C@H]2/C=C/c1ccc(-c2cccc(F)c2)cn1 [vorapaxar]
intracranial bleeding (PAR1): significantly increased rates of intracranial bleeding

B1: MoB5F E6: hybridoma supernatant clone, second screening; likely parent of 5F.RE6 (antibody, V domains shown)
VH: QVQLAESGGGVVQPGRSLRVSCAASGFTFSSYGMHWVRQAPGKGLEWVAVIWYDGTKKYYADSLKGRFTISRDNSKYTLYLQMNSLRADDTALYFCARKGARGITGLDYWGQGTLVTVSS
VL: DIQMTQSPSSLSASAGDRITITCRASQSISNYLNWYQQKPGKAPKLLIYAASSLQSGVPSRFSGSGSGTDFTLTISSLQPEDFASYYCRQNYNTPLTFGGGTKVEIK
Functional screen on hybridoma supernatants (human platelets): Yes (+) (aggregation between 50-80% of control)
Binding to PAR2 ratio (PAR2): 1.3

B2: MoB5G G1: hybridoma supernatant clone, second screening; likely parent of 5G.RG1 (antibody, V domains shown)
VH: QVQLVESGGGVVQPGRSLRLSCVASGFTLSSYGMHWVRQAPGKGLEWVAVIWYDGSSKYYTDSVKGRFDISRDNSKNTLYLQMNILRAEDTAVYYCARETILIGGVPFDYWGQGTLVTVSS
VL: EIVLTQSPGTLSLSPGERATLSCGASQSIRSNYLAWYQQKPGQAPRLLIYGASSRATGTPDRFSGSGSGTDFTLTITRLEPEDFALYYCQQYGRSYTFGQGTKLEIK
Functional screen on hybridoma supernatants (human platelets): Yes (+++) (aggregation <25% of control)
Binding to PAR2 ratio (PAR2): 1.0

B3: MoB5AR C3: parent hybridoma clone (supernatant) from which 5A.RC3.F10b.H4b was sub-cloned (antibody, V domains shown)
VH: QVQLVESGGGVVQPGRSLRLSCAASGFTLSNYGMHWVRQAPGKGLEWVSVIWYDGSNKHYADSVKGRFTISRDNSKNTLYLQMNSLRAEDTAVYYCARESIVEVLPPFDYWGQGTLVTVSS
VL: KIVLTQSPGTLSLSPGERVTLSCRASQRVRNNYLAWFQQKPGQAPRLFIYGASSRATGIPDRFSGSGSGTDFIFTISRLEPEDFAVYYCQQYGNSYTFGQGTKLEIK
modifications: VH of 5A.RC3; VL of 5A.RC3
notes: parent hybridoma clone (supernatant) from which 5A.RC3.F10b.H4b was sub-cloned
Fold binding native vs KLH-linked PAR4 peptide (native PAR4 peptide): 19.9
Functional screen on hybridoma supernatants that exhibited binding ([1]; % of uncleaved PAR4 peptide expressed on HEK293 cells): Yes (Hybridoma supernatants that demonstrated greater than 70% of uncleaved PAR4 were considered positive)
blocked thrombin-induced cleavage of PAR4 ([1]; initial screen of hybridoma supernatants, thrombin 2 U/ml for 10 mins): at least 90%
block of thrombin-induced cleavage of PAR4 ([1]; initial screen, thrombin 2 U/ml for 10 mins): almost completely blocked thrombin-induced cleavage of PAR4
